Assay results from article doi:10.1101/2025.06.23.660979.

Assays:
[1] = molecular target: VcLmuA, LmuA of the type II Lamassu system from Vibrio cholerae O1 El (Vibrio cholerae O1 El); assay: SEC-MALS
[2] = molecular target: VcLmuA, LmuA of the type II Lamassu system from Vibrio cholerae O1 El (Vibrio cholerae O1 El); assay: cryo-EM structure
[3] = molecular target: BcLmuA K59A, nuclease-dead BcLmuA of the BcLmuA(K59A)B complex (Bacillus cellulasensis NIO-1130); assay: cryo-EM structure

## VcLmuC, LmuC of the type II Lamassu system from Vibrio cholerae O1 El (natural protein)
[1]
  stoichiometry N (LmuC per LmuA): 1
[2]
  stoichiometry N (VcLmuC per VcLmuA): 1

## BcLmuA K59A, nuclease-dead BcLmuA of the BcLmuA(K59A)B complex (natural protein)
[3]
  stoichiometry N: 4

## VcLmuA, LmuA of the type II Lamassu system from Vibrio cholerae O1 El (natural protein)
[2]
  stoichiometry N: 4
